Values quoted from earlier work in US12383526B2, “Optimized sigma-1 agonist method of responder selection and treatment” (ANAVEX LIFE SCIENCES CORP., priority 2018, dated 2025).

Conditions: after 72 weeks; CTAD 2018; cited from earlier work

B1: BAN2401: comparison from other studies: data presented at CTAD 2018 for BAN2401 after 72 weeks (antibody, chains of the INN, looked up, V domains shown)
VH: EVQLVESGGGLVQPGGSLRLSCSASGFTFSSFGMHWVRQAPGKGLEWVAYISSGSSTIYYGDTVKGRFTISRDNAKNSLFLQMSSLRAEDTAVYYCAREGGYYYGRSYYTMDYWGQGTTVTVSS
VL: DVVMTQSPLSLPVTPGAPASISCRSSQSIVHSNGNTYLEWYLQKPGQSPKLLIYKVSNRFSGVPDRFSGSGSGTDFTLRISRVEAEDVGIYYCFQGSHVPPTFGPGTKLEIK
In the case of B1, the “adjusted mean change from baseline in ADAS-Cog” value is given as 47% and the “adjusted mean change in ADCOMS” value is given as 30%.
